In US20070244048A1 (published 2007):
Non-standard residues stand in square brackets, D forms with d. No end group written: not given here. hArg = N=C(N)NCCCC[C@H](N)C(=O)O; dNle = CCCC[C@@H](N)C(=O)O

B1: neuromedin U receptor agonist D (peptide)
peptide: YF[dA]WRPRN-NH2
modifications: N-terminus assumed
SMILES: C[C@@H](NC(=O)[C@H](Cc1ccccc1)NC(=O)[C@@H](N)Cc1ccc(O)cc1)C(=O)N[C@@H](Cc1c[nH]c2ccccc12)C(=O)N[C@@H](CCCNC(=N)N)C(=O)N1CCC[C@H]1C(=O)N[C@@H](CCCNC(=N)N)C(=O)N[C@@H](CC(N)=O)C(N)=O
B2: neuromedin U receptor agonist B (peptide)
peptide: YF[dL]WRPRN-NH2
modifications: N-terminus assumed
SMILES: CC(C)C[C@@H](NC(=O)[C@H](Cc1ccccc1)NC(=O)[C@@H](N)Cc1ccc(O)cc1)C(=O)N[C@@H](Cc1c[nH]c2ccccc12)C(=O)N[C@@H](CCCNC(=N)N)C(=O)N1CCC[C@H]1C(=O)N[C@@H](CCCNC(=N)N)C(=O)N[C@@H](CC(N)=O)C(N)=O
B3: neuromedin U receptor agonist E (peptide)
peptide: Ac-F[dL]WRPRN-NH2
SMILES: CC(=O)N[C@@H](Cc1ccccc1)C(=O)N[C@H](CC(C)C)C(=O)N[C@@H](Cc1c[nH]c2ccccc12)C(=O)N[C@@H](CCCNC(=N)N)C(=O)N1CCC[C@H]1C(=O)N[C@@H](CCCNC(=N)N)C(=O)N[C@@H](CC(N)=O)C(N)=O
B4: neuromedin U receptor agonist I (peptide)
peptide: FWLFRP[hArg]N-NH2
modifications: N-terminus assumed
SMILES: CC(C)C[C@H](NC(=O)[C@H](Cc1c[nH]c2ccccc12)NC(=O)[C@@H](N)Cc1ccccc1)C(=O)N[C@@H](Cc1ccccc1)C(=O)N[C@@H](CCCNC(=N)N)C(=O)N1CCC[C@H]1C(=O)N[C@@H](CCCCNC(=N)N)C(=O)N[C@@H](CC(N)=O)C(N)=O
B5: neuromedin U receptor agonist J (peptide)
peptide: FWLFRA[hArg]N-NH2
modifications: N-terminus assumed
SMILES: CC(C)C[C@H](NC(=O)[C@H](Cc1c[nH]c2ccccc12)NC(=O)[C@@H](N)Cc1ccccc1)C(=O)N[C@@H](Cc1ccccc1)C(=O)N[C@@H](CCCNC(=N)N)C(=O)N[C@@H](C)C(=O)N[C@@H](CCCCNC(=N)N)C(=O)N[C@@H](CC(N)=O)C(N)=O
B6: neuromedin U receptor agonist P (peptide)
peptide: FRVDEEFQSPFASQSRGFWLFRA[hArg]N-NH2
modifications: N-terminus assumed
SMILES: CC(C)C[C@H](NC(=O)[C@H](Cc1c[nH]c2ccccc12)NC(=O)[C@H](Cc1ccccc1)NC(=O)CNC(=O)[C@H](CCCNC(=N)N)NC(=O)[C@H](CO)NC(=O)[C@H](CCC(N)=O)NC(=O)[C@H](CO)NC(=O)[C@H](C)NC(=O)[C@H](Cc1ccccc1)NC(=O)[C@@H]1CCCN1C(=O)[C@H](CO)NC(=O)[C@H](CCC(N)=O)NC(=O)[C@H](Cc1ccccc1)NC(=O)[C@H](CCC(=O)O)NC(=O)[C@H](CCC(=O)O)NC(=O)[C@H](CC(=O)O)NC(=O)[C@@H](NC(=O)[C@H](CCCNC(=N)N)NC(=O)[C@@H](N)Cc1ccccc1)C(C)C)C(=O)N[C@@H](Cc1ccccc1)C(=O)N[C@@H](CCCNC(=N)N)C(=O)N[C@@H](C)C(=O)N[C@@H](CCCCNC(=N)N)C(=O)N[C@@H](CC(N)=O)C(N)=O
B7: neuromedin U receptor agonist Q (peptide)
peptide: FRVDEEFQSPFASQSRGFWLFRPR[dNle]-NH2
modifications: N-terminus assumed
SMILES: CCCC[C@@H](NC(=O)[C@H](CCCNC(=N)N)NC(=O)[C@@H]1CCCN1C(=O)[C@H](CCCNC(=N)N)NC(=O)[C@H](Cc1ccccc1)NC(=O)[C@H](CC(C)C)NC(=O)[C@H](Cc1c[nH]c2ccccc12)NC(=O)[C@H](Cc1ccccc1)NC(=O)CNC(=O)[C@H](CCCNC(=N)N)NC(=O)[C@H](CO)NC(=O)[C@H](CCC(N)=O)NC(=O)[C@H](CO)NC(=O)[C@H](C)NC(=O)[C@H](Cc1ccccc1)NC(=O)[C@@H]1CCCN1C(=O)[C@H](CO)NC(=O)[C@H](CCC(N)=O)NC(=O)[C@H](Cc1ccccc1)NC(=O)[C@H](CCC(=O)O)NC(=O)[C@H](CCC(=O)O)NC(=O)[C@H](CC(=O)O)NC(=O)[C@@H](NC(=O)[C@H](CCCNC(=N)N)NC(=O)[C@@H](N)Cc1ccccc1)C(C)C)C(N)=O

target: T1, human NMUR1 (human, UniProt Q9HB89 1-426); experiment: cell-based or functional assay
T1 sequence (looked up): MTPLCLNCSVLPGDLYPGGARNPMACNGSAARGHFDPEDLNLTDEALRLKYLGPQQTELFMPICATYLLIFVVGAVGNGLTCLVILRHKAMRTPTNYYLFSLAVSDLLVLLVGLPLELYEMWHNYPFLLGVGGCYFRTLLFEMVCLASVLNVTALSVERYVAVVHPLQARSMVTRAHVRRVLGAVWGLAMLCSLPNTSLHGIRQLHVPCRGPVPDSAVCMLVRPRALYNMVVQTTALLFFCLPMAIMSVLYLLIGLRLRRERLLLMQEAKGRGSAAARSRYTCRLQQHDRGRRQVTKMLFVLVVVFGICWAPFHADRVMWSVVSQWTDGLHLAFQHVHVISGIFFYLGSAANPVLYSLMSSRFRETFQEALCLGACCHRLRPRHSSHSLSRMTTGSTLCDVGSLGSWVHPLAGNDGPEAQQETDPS

First: B1
Second: B2
The “% activity” value of the first is lower: 96% for the first, 103% for the second.

First: YFGWRPRN-NH2 [neuromedin U receptor agonist C]
Second: B3
The “% activity” value of the first is lower: 87% for the first, 100% for the second.

For FRVDEEFQSPFASQSRGYFWRPRN-NH2 [neuromedin U receptor agonist G], the “% activity” value was 91%.

Going from B1 to B2, the “IC50 (nM), functional” value rises from 1.5 nM to 9 nM (6-fold).

Compared with YFGWRPRN-NH2 [neuromedin U receptor agonist C], B3 is 1.7-fold higher in “IC50 (nM), functional” value: 1.1 nM for the first, 1.9 nM for the second.

For FRVDEEFQSPFASQSRGYFWRPRN-NH2 [neuromedin U receptor agonist G], the “IC50 (nM), functional” value was 8.4 nM.

target: T2, human NMUR2 (human, UniProt Q9GZQ4 1-415); experiment: cell-based or functional assay
T2 sequence (Q9GZQ4 whole entry): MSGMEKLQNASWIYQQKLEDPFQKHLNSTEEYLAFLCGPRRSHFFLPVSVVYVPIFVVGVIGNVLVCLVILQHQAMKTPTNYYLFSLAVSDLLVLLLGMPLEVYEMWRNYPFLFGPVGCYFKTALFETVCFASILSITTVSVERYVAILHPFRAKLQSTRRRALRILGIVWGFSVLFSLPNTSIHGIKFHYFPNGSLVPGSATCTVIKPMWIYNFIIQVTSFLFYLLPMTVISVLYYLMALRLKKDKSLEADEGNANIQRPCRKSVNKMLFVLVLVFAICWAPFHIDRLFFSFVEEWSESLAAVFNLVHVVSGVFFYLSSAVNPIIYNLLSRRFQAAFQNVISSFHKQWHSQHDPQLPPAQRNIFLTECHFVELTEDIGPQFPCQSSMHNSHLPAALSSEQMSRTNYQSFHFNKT

B1 and B2 are the same in “% activity” value: 0% for the first, 0% for the second.

Compared with YFGWRPRN-NH2 [neuromedin U receptor agonist C], B3 is higher in “% activity” value: 0% for the first, 1.8% for the second.

For FRVDEEFQSPFASQSRGYFWRPRN-NH2 [neuromedin U receptor agonist G], the “% activity” value was 14%.

B1 and B2 cannot be ordered by “IC50 (nM), functional” value: over 1000 nM for the first, over 1000 nM for the second.

YFGWRPRN-NH2 [neuromedin U receptor agonist C] and B3 cannot be ordered by “IC50 (nM), functional” value: over 1000 nM for the first, over 1000 nM for the second.

In the case of FRVDEEFQSPFASQSRGYFWRPRN-NH2 [neuromedin U receptor agonist G], the “IC50 (nM), functional” value is reported as over 1000 nM.

target: T1, human NMUR1; experiment: cell-based or functional assay; remark: another data set of the same source

Going from B4 to B5, the “% activity” value falls from 7% to 0%.

First: B6
Second: FALFRPRN-NH2 [neuromedin U receptor agonist N]
The “% activity” value of the first is lower: 11% for the first, 87% for the second.

With B7 the “% activity” value was 0%.

B4 and B5 cannot be ordered by “EC50” value: over 1000 nM for the first, over 1000 nM for the second.

B6 and FALFRPRN-NH2 [neuromedin U receptor agonist N] are within 1.5-fold of each other in “EC50” value: 46 nM for the first, 53 nM for the second.

In the case of B7, the “EC50” value is reported as over 1000 nM.

target: T2, human NMUR2; experiment: cell-based or functional assay; remark: another data set of the same source

Going from B4 to B5, the “% activity” value falls from 99% to 59%.

B6 and FALFRPRN-NH2 [neuromedin U receptor agonist N] are the same in “% activity” value: 100% for the first, 100% for the second.

For B7, the “% activity” value was 97%.

Going from B4 to B5, the “EC50” value rises from 10 nM to 160 nM (16-fold).

Going from B6 to FALFRPRN-NH2 [neuromedin U receptor agonist N], the “EC50” value falls from 25 nM to 3.9 nM (6.4-fold).

With B7 the “EC50” value was 18.3 nM.

target: T1, human NMUR1; experiment: 125I-hNMU-25 displacement, HEK cell membranes
Procedure: (§1) Confluent cell monolayers expressing NMU receptors (the HEK cells described above) were harvested with phosphate buffered saline, collected by centrifugation, and resuspended in membrane buffer (50 mM TrisCl pH 7.4, 5 mM MgCl₂, 1× Protease Inhibitor Cocktail, 10 μM phosphoramidon). After the cell pellet was homogenized, the solution was centrifuged at 18,000 rpm for 20 minutes at 4° C. The pellet was resuspended in membrane buffer to yield a final concentration of 0.5-5 μg/μL of membrane and stored at −80° C.
(§2) Experiments were performed in assay buffer (25 mM TrisCl, pH 7.4, 10 mM MgCl₂, 2mM EDTA, 1× Protease Inhibitor Cocktail, 100 μg/mL Bacitricin, 10 μM phosphoramidon) in 200 μL volumes in a 96-well format using 2-5 μg of membrane and […] ¹²⁵I-hNMU-25 (about 12,000 cpm/well). For non-specific binding, 1 μM hNMU-25 was added. About 5 μL of peptides were added to measure antagonist activity, and the entire reaction was incubated at room temperature with shaking for 80 minutes. The reaction was terminated by rapid filtration through 0.3% poly-ethylenimine presoaked Millipore 96-well filter plates and washed with ice-cold buffer (5 mM TrisCl pH 7.4, 10 mM MgCl₂, 2.5 mM EDTA, 0.04% Triton X-100). Plates were air-dried overnight at room temperature and recovered radioactivity was determined by standard scintillation counting. IC₅₀ values were determined using GraphPad Prism software.
(§3) Concentration-response curves and radioligand-binding data were fitted using Prism (GraphPad Software). Results are summarized below in Tables 8 and 9.

Going from B1 to B2, the “% activity (binding)” value falls from 100% to 96%.

Compared with YFGWRPRN-NH2 [neuromedin U receptor agonist C], B3 is lower in “% activity (binding)” value: 100% for the first, 93% for the second.

Compared with B4, B5 is higher in “% activity (binding)” value: 23% for the first, 34% for the second.

First: B6
Second: FALFRPRN-NH2 [neuromedin U receptor agonist N]
The “% activity (binding)” value of the first is lower: 1% for the first, 38.4% for the second.

First: B7
Second: FRVDEEFQSPFASQSRGYFWRPRN-NH2 [neuromedin U receptor agonist G]
The “% activity (binding)” value of the first is lower: 16% for the first, 97% for the second.

First: B1
Second: B2
The IC50 of the first is 5.4-fold lower: 2.6 nM for the first, 14 nM for the second.

First: YFGWRPRN-NH2 [neuromedin U receptor agonist C]
Second: B3
The IC50 of the first is 180-fold lower: 0.42 nM for the first, 75 nM for the second. The first is the more potent here.

FRVDEEFQSPFASQSRGYFWRPRN-NH2 [neuromedin U receptor agonist G] gave an IC50 of 2.1 nM.

target: T2, human NMUR2; experiment: 125I-hNMU-25 displacement, HEK cell membranes
Procedure: as §1, §2, §3

Going from B1 to B2, the “% activity (binding)” value rises from 0% to 35%.

First: YFGWRPRN-NH2 [neuromedin U receptor agonist C]
Second: B3
The “% activity (binding)” value of the first is lower: 0% for the first, 5% for the second.

Going from B4 to B5, the “% activity (binding)” value falls from 90% to 63%.

Going from B6 to FALFRPRN-NH2 [neuromedin U receptor agonist N], the “% activity (binding)” value rises from 81% to 100%.

First: B7
Second: FRVDEEFQSPFASQSRGYFWRPRN-NH2 [neuromedin U receptor agonist G]
The “% activity (binding)” value of the first is higher: 89% for the first, 33% for the second.

First: B4
Second: B5
The IC50 of the first is 16-fold lower: 9.1 nM for the first, 150 nM for the second. The first is the more potent here.

Compared with B6, FALFRPRN-NH2 [neuromedin U receptor agonist N] is 6.8-fold lower in IC50: 150 nM for the first, 22 nM for the second. The second is the more potent here.

Going from B7 to FRVDEEFQSPFASQSRGYFWRPRN-NH2 [neuromedin U receptor agonist G], the IC50 rises from 12 nM to 31 nM (2.6-fold).
